This is an account of results in patent US5648214, “High-affinity oligonucleotide ligands to the tachykinin substance P” (University Research Corporation).

The target in data set [1] is T1, Substance P (SP) (UniProt P20366).
T1 sequence: RPKPQQFFGLM
As to conditions: equilibrium dialysis rough estimate at 20 uM RNA, fraction bound 0.017.

In data set [2] the target is T2, Substance P (SP) (UniProt P20366).
T2 chain: RPKPQQFFGLM
The data set can be described thus: high affinity class 3 ligand; single-point equilibrium dialysis, Kd value only in figure. Conditions: protein: synthetic; tags: synthetic peptide, C-terminal amide; Sigma; 3H-SP from NEN. The procedure: Equilibrium dialysis experiments were performed with a Spectra/Por® (Spectrum; Houston, Tex.) equilibrium dialyzer, Spectra/Por® (Spectrum; Houston, Tex.) microcell dialysis chambers (200-µl chamber volumes), and 12000–14000 MWCO dialysis membranes (Spectrum; Houston, Tex.). These membranes allow passage of SP but not 107-nt RNAs. Sample volumes were 200 µl on each side of the membrane (i.e., 200 µl per chamber). All experiments were at room temperature in 1× SP binding buffer. RNAs (unlabeled) were denatured prior to re-equilibration in binding buffer as described above for Experiment B. For binding curves (FIG. 4), RNA concentrations between 50 nM and 20 µM were utilized. Single point K_d estimates for individual Experiment B ligands were performed with 200 nM or 1 µM RNA. […] Equilibrium dialysis initiated with ^3H-SP on one side of the membrane and in the absence of RNA was performed to determine the length of time required to attain equilibrium (~2.5 hours for Spectra/Por®-2 membranes); dialysis times for binding measurements were at least one hour longer than this determined time. Following equilibration, samples were withdrawn from the dialysis chambers, added to scintillation fluid, and counted.
In general terms: Equilibrium dialysis compares concentrations on both sides of a semipermeable membrane.

By Kd is commonly meant the concentration at which binding is half-saturated.

As for “GGGAGCUCAGAAUAAACGCUCAANNNNNNNNNNNNNNNNNNNNNNNNNNNNNNNNNNNNNNNNNNNNNNNNNNNNNNNNNNNNUUCGACAUGAGGCCCGGAUCCGGC [unselected 60N RNA pool]”, the Kd with Substance P (SP) [1] is 1200 µM.

B1: ligand B32 (ssRNA)
RNA: GGGAGCUCAGAAUAAACGCUCAAAAAGGCACUGACCACCCUCAGGAAGAAUAACCGCGGUCACCCGCAUCCGAGUCUAUCAAUUUCGACAUGAGGCCCGGAUCCGGC
With B1, the binding result in the data set with Substance P (SP) [2] is “binds”.
